In the RNAGym collection of RNA variant scans (doi:10.7554/elife.90254):

B1: LINE1-mini (parent)
chain: GGCAGAGCUCAACACAGCGUGGCAAAGUGGCUGUGGCUAGACUGCC

Variants of: B1
Experiment: self-cleavage, relative activity (ratio to wild type); higher = more cleavage; in vitro, sequencing; the parent is a self-cleaving ribozyme
With C3U G17C the self-cleavage was 0.18.
Work on G2A A16U yielded a self-cleavage of 0.33.
Variant U28G C31G has a self-cleavage of 0.28.
In the case of G33C C46U, the self-cleavage is reported as 0.05.
C15A C42G gave a self-cleavage of 0.04.
Variant G2U G19U has a self-cleavage of 0.05.
Variant U32A C46U has a self-cleavage of 0.1.
G2C G22A showed a self-cleavage of 0.15.
In the case of C18U A26G, the self-cleavage is reported as 0.65.
Work on A26G G33A yielded a self-cleavage of 0.09.
For G36C G44A, the self-cleavage was 0.04.
G22C A39G showed a self-cleavage of 0.09.
A25G U28C showed a self-cleavage of 0.84.
C8U U38C showed a self-cleavage of 0.22.
A25U C37A gave a self-cleavage of 0.06.
Work on A12G G27A yielded a self-cleavage of 0.03.
Variant C10G G40A has a self-cleavage of 0.01.
G5A C37G showed a self-cleavage of 0.05.
Work on C10A G35U yielded a self-cleavage of 0.03.
C8A G44C showed a self-cleavage of 0.23.
For A14U G30C, the self-cleavage was 0.14.
For A14U G30A, the self-cleavage was 0.18.
With G2A C31A the self-cleavage was 0.23.
For G30A G44C, the self-cleavage was 0.56.
In the case of C10G U34G, the self-cleavage is reported as 0.03.
A16U U28C showed a self-cleavage of 0.55.
Work on U9G U20G yielded a self-cleavage of 0.06.
For G35A G40A, the self-cleavage was 0.07.
U32A C37G gave a self-cleavage of 0.08.
With C23U G29A the self-cleavage was 1.11.
With U28G C45A the self-cleavage was 0.44.
With U20A G21C the self-cleavage was 0.39.
C3A A26G showed a self-cleavage of 0.67.
Variant C10G G19A has a self-cleavage of 0.1.
C45U showed a self-cleavage of 1.43.
G5U G19C showed a self-cleavage of 0.05.
Variant A26C G44U has a self-cleavage of 0.28.
Work on C8U A41G yielded a self-cleavage of 0.2.
Variant C3A G27A has a self-cleavage of 0.31.
A14C C42A gave a self-cleavage of 0.07.
In the case of G22A A26C, the self-cleavage is reported as 0.79.
With A6U G30C the self-cleavage was 1.36.
For A11C A14C, the self-cleavage was 0.02.
For U9C A12C, the self-cleavage was 0.04.
For A6G U28G, the self-cleavage was 0.09.
G33U A39C showed a self-cleavage of 0.07.
G7U A41C gave a self-cleavage of 0.24.
Variant A6U U28G has a self-cleavage of 0.6.
Variant G27A C31A has a self-cleavage of 1.09.
In the case of U20G G33C, the self-cleavage is reported as 0.06.
With C10G U43C the self-cleavage was 0.02.
With G27C C31U the self-cleavage was 0.07.
Work on C3U U28A yielded a self-cleavage of 0.4.
With A41C the self-cleavage was 0.06.
With G1C C15G the self-cleavage was 0.03.
Variant C3U G44U has a self-cleavage of 0.23.
In the case of A16G G33C, the self-cleavage is reported as 0.05.
Work on G5A A12C yielded a self-cleavage of 0.04.
Work on G27C G44U yielded a self-cleavage of 0.38.
Work on C3U U9A yielded a self-cleavage of 0.29.
Work on G27C U32A yielded a self-cleavage of 0.09.
With A16G A25U the self-cleavage was 0.31.
For G27A A41C, the self-cleavage was 0.04.
With G2U C46U the self-cleavage was 0.06.
A11U C15A gave a self-cleavage of 0.03.
G29U A39U gave a self-cleavage of 0.7.
G1U C46G gave a self-cleavage of 0.74.
U34A A41U showed a self-cleavage of 0.05.
G5C G17A showed a self-cleavage of 0.04.
With C13A C45U the self-cleavage was 0.15.
G21C G30C gave a self-cleavage of 1.62.
Variant U38A G44U has a self-cleavage of 0.17.
With G27U U34A the self-cleavage was 0.23.
Work on G21A A25G yielded a self-cleavage of 1.4.
Variant C10G A12G has a self-cleavage of 0.03.
In the case of A4C C31U, the self-cleavage is reported as 0.06.
A26C G36C showed a self-cleavage of 0.11.
For G2C C45U, the self-cleavage was 0.19.
With U38C C42U the self-cleavage was 0.07.
G2C C8U showed a self-cleavage of 0.18.
G5C C18G showed a self-cleavage of 0.04.
In the case of G36C C42U, the self-cleavage is reported as 0.09.
In the case of A25C U43C, the self-cleavage is reported as 0.04.
In the case of A25C U43A, the self-cleavage is reported as 0.09.
For G22U A25C, the self-cleavage was 0.65.
Variant G17C G33C has a self-cleavage of 0.03.
For G1U G19C, the self-cleavage was 0.2.
A4G C13G gave a self-cleavage of 0.2.
Work on G17A U38C yielded a self-cleavage of 0.12.
A26C A39C gave a self-cleavage of 0.09.
For C3U A6U, the self-cleavage was 0.38.
Variant A16G C46A has a self-cleavage of 0.64.
For G22C G36C, the self-cleavage was 0.25.
G27U G29C showed a self-cleavage of 0.27.
C3G G21U gave a self-cleavage of 0.48.
In the case of C15A A24U, the self-cleavage is reported as 0.12.
In the case of C3A A24G, the self-cleavage is reported as 0.78.
A16U G27A showed a self-cleavage of 0.59.
With A16U G27U the self-cleavage was 0.13.
For G17U G21A, the self-cleavage was 0.3.
With A14G G27A the self-cleavage was 0.83.
With G19U A24U the self-cleavage was 0.81.
G33C C37U showed a self-cleavage of 0.05.
Variant G19A A24U has a self-cleavage of 2.05.
In the case of C37G A41C, the self-cleavage is reported as 0.02.
In the case of A16U G30C, the self-cleavage is reported as 0.45.
With G35U G36U the self-cleavage was 0.1.
For C23A C46G, the self-cleavage was 1.53.
Work on C3A G7C yielded a self-cleavage of 0.13.
In the case of A4C G19U, the self-cleavage is reported as 0.06.
Work on C3U C37A yielded a self-cleavage of 0.12.
In the case of C3U C37U, the self-cleavage is reported as 0.14.
With G17C U32A the self-cleavage was 0.07.
Variant C3U U20A has a self-cleavage of 0.28.
Work on C23A C45U yielded a self-cleavage of 1.97.
Work on A11U U34A yielded a self-cleavage of 0.04.
U38G U43G gave a self-cleavage of 0.02.
Variant G2C A41G has a self-cleavage of 0.17.
With G17A U32A the self-cleavage was 0.06.
Work on G30C U32A yielded a self-cleavage of 0.26.
With A11C C23G the self-cleavage was 0.06.
In the case of U20A G30U, the self-cleavage is reported as 0.93.
Variant U43C C45G has a self-cleavage of 0.1.
G21C G35U showed a self-cleavage of 0.16.
Work on G7A U34G yielded a self-cleavage of 0.14.
Work on G1A U20C yielded a self-cleavage of 0.33.
A24C U28A gave a self-cleavage of 0.6.
With A4U C18U the self-cleavage was 0.11.
Variant G21U G36C has a self-cleavage of 0.1.
For G22C G30A, the self-cleavage was 0.76.
C13G G27C gave a self-cleavage of 0.08.
For C37A A41C, the self-cleavage was 0.03.
With C23U G30A the self-cleavage was 2.05.
Variant G7A C31U has a self-cleavage of 0.08.
With C31U U38G the self-cleavage was 0.05.
With G30U G44U the self-cleavage was 0.21.
With A16U A25C the self-cleavage was 0.03.
C8A G21U gave a self-cleavage of 0.23.
C13U G40U gave a self-cleavage of 0.09.
A6G C23U gave a self-cleavage of 0.1.
G35U U38A showed a self-cleavage of 0.12.
Variant A14G G22C has a self-cleavage of 0.31.
A14G G22A gave a self-cleavage of 0.34.
Work on U20C G27U yielded a self-cleavage of 0.31.
C13A U34G showed a self-cleavage of 0.03.
For A16G U43C, the self-cleavage was 0.04.
Variant A6U G36U has a self-cleavage of 0.08.
Variant A11U U38A has a self-cleavage of 0.07.
For C31G A41G, the self-cleavage was 0.03.
Variant C3A A11G has a self-cleavage of 0.06.
A26U U32C gave a self-cleavage of 0.11.
Work on C13U C18G yielded a self-cleavage of 0.05.
Variant A12U U20C has a self-cleavage of 0.25.
For G1U U9A, the self-cleavage was 0.03.
C18A A24U showed a self-cleavage of 0.67.
Variant G5U C10U has a self-cleavage of 0.06.
With A14C G27C the self-cleavage was 0.07.
For G19C G22C, the self-cleavage was 0.32.
Variant U9A C37G has a self-cleavage of 0.11.
With U9C C15G the self-cleavage was 0.04.
In the case of G1A G22A, the self-cleavage is reported as 0.94.
G1A G30A showed a self-cleavage of 0.85.
Work on C15A G40A yielded a self-cleavage of 0.04.
A25C G33A gave a self-cleavage of 0.05.
With C23G C37G the self-cleavage was 0.01.
With C23G C37A the self-cleavage was 0.04.
G22C A24C showed a self-cleavage of 0.85.
